Results published in patent publication US20250186541A1, “DLL3 TARGETING PEPTIDES AND CONSTRUCTS THEREOF” (MARIANA ONCOLOGY INC., priority 2023, published 2025).
Numbered stars: 1 amine (or outer) side, 2 acyl side, 3 side chain; on linkers, the order of the positions; unused ones are H or OH. Bridge positions count the residues as written; N and C are the ends. Square brackets hold non-standard residues; d marks the D form. Side chains are listed from the residue outwards. * marks the point of attachment. Ala(piperidin-4-yl) = O=C([C@H](CC1CCN([*:3])CC1)N[*:1])[*:2]; DOTA = O=C(O)CN1CCN(CC(=O)O)CCN(CC(=O)*)CCN(CC(=O)O)CC1; Phe(4-CF3) = N[C@@H](Cc1ccc(C(F)(F)F)cc1)C(=O)O; Trp(7-aza) = N[C@@H](Cc1c[nH]c2ncccc12)C(=O)O; γGlu = O=C(O)[C@H](CCC(=O)[*:2])N[*:1]; 1Nal = N[C@@H](Cc1cccc2ccccc12)C(=O)O; hPhe = N[C@@H](CCc1ccccc1)C(=O)O; tBuAla = CC(C)(C)C[C@H](N)C(=O)O; 3Pal = N[C@@H](Cc1cccnc1)C(=O)O; 4Pal = N[C@@H](Cc1ccncc1)C(=O)O; NMeQ = CN[C@@H](CCC(N)=O)C(=O)O; Cha = N[C@@H](CC1CCCCC1)C(=O)O; NMeL = CN[C@@H](CC(C)C)C(=O)O; Cba = N[C@@H](CC1CCC1)C(=O)O; Chg = N[C@H](C(=O)O)C1CCCCC1; dNle = CCCC[C@@H](N)C(=O)O; Nle = CCCC[C@H](N)C(=O)O; dNMeA = CN[C@H](C)C(=O)O; Ahx = NCCCCCC(=O)O

T1: Biotinylated human DLL3 (human, UniProt Q9NYJ7 27-492, biotinylated (site not stated))
T1 construct: also called Delta-like ligand 3; Delta Like Canonical Notch Ligand 3
T1 sequence (looked up): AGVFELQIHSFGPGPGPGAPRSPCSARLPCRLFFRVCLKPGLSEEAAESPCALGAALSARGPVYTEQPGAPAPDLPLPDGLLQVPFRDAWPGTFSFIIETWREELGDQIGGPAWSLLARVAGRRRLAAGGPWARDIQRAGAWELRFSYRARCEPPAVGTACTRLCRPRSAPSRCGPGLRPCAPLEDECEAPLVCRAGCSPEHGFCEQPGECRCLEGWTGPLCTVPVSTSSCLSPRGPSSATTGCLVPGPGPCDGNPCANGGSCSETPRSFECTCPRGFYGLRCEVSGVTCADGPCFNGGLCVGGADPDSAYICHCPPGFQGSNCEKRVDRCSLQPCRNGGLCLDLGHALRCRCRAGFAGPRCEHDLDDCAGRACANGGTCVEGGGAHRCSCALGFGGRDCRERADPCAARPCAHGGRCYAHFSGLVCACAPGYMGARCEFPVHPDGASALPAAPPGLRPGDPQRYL

B1: Cpd #112 (peptide)
peptide: Ac-[Chg]SDC[1Nal]L[3Pal]WNCPFD[dK](DOTA)-NH2
modifications: disulfide 4-10
SMILES: CC(=O)N[C@H](C(=O)N[C@@H](CO)C(=O)N[C@@H](CC(=O)O)C(=O)N[C@H]1CSSC[C@@H](C(=O)N2CCC[C@H]2C(=O)N[C@@H](Cc2ccccc2)C(=O)N[C@@H](CC(=O)O)C(=O)N[C@H](CCCCNC(=O)CN2CCN(CC(=O)O)CCN(CC(=O)O)CCN(CC(=O)O)CC2)C(N)=O)NC(=O)[C@H](CC(N)=O)NC(=O)[C@H](Cc2c[nH]c3ccccc23)NC(=O)[C@H](Cc2cccnc2)NC(=O)[C@H](CC(C)C)NC(=O)[C@H](Cc2cccc3ccccc23)NC1=O)C1CCCCC1
B2: Cpd #96 (peptide)
peptide: Ac-[Chg]SK(DOTA)CWLQWNCPFD-NH2
modifications: disulfide 4-10
SMILES: CC(=O)N[C@H](C(=O)N[C@@H](CO)C(=O)N[C@@H](CCCCNC(=O)CN1CCN(CC(=O)O)CCN(CC(=O)O)CCN(CC(=O)O)CC1)C(=O)N[C@H]1CSSC[C@@H](C(=O)N2CCC[C@H]2C(=O)N[C@@H](Cc2ccccc2)C(=O)N[C@@H](CC(=O)O)C(N)=O)NC(=O)[C@H](CC(N)=O)NC(=O)[C@H](Cc2c[nH]c3ccccc23)NC(=O)[C@H](CCC(N)=O)NC(=O)[C@H](CC(C)C)NC(=O)[C@H](Cc2c[nH]c3ccccc23)NC1=O)C1CCCCC1
B3: Cpd #63 (peptide)
peptide: Ac-MSDCWLQ[hPhe]NCPFD[dK](DOTA)-NH2
modifications: disulfide 4-10
SMILES: CSCC[C@H](NC(C)=O)C(=O)N[C@@H](CO)C(=O)N[C@@H](CC(=O)O)C(=O)N[C@H]1CSSC[C@@H](C(=O)N2CCC[C@H]2C(=O)N[C@@H](Cc2ccccc2)C(=O)N[C@@H](CC(=O)O)C(=O)N[C@H](CCCCNC(=O)CN2CCN(CC(=O)O)CCN(CC(=O)O)CCN(CC(=O)O)CC2)C(N)=O)NC(=O)[C@H](CC(N)=O)NC(=O)[C@H](CCc2ccccc2)NC(=O)[C@H](CCC(N)=O)NC(=O)[C@H](CC(C)C)NC(=O)[C@H](Cc2c[nH]c3ccccc23)NC1=O
B4: Cpd #113 (peptide)
peptide: Ac-[Chg]SDC[1Nal]L[4Pal]WNCPFD[dK](DOTA)-NH2
modifications: disulfide 4-10
SMILES: CC(=O)N[C@H](C(=O)N[C@@H](CO)C(=O)N[C@@H](CC(=O)O)C(=O)N[C@H]1CSSC[C@@H](C(=O)N2CCC[C@H]2C(=O)N[C@@H](Cc2ccccc2)C(=O)N[C@@H](CC(=O)O)C(=O)N[C@H](CCCCNC(=O)CN2CCN(CC(=O)O)CCN(CC(=O)O)CCN(CC(=O)O)CC2)C(N)=O)NC(=O)[C@H](CC(N)=O)NC(=O)[C@H](Cc2c[nH]c3ccccc23)NC(=O)[C@H](Cc2ccncc2)NC(=O)[C@H](CC(C)C)NC(=O)[C@H](Cc2cccc3ccccc23)NC1=O)C1CCCCC1
B5: Cpd #91 (peptide)
peptide: Ac-SK(DOTA)CWLQWNCPFD-NH2
modifications: disulfide 3-9
SMILES: CC(=O)N[C@@H](CO)C(=O)N[C@@H](CCCCNC(=O)CN1CCN(CC(=O)O)CCN(CC(=O)O)CCN(CC(=O)O)CC1)C(=O)N[C@H]1CSSC[C@@H](C(=O)N2CCC[C@H]2C(=O)N[C@@H](Cc2ccccc2)C(=O)N[C@@H](CC(=O)O)C(N)=O)NC(=O)[C@H](CC(N)=O)NC(=O)[C@H](Cc2c[nH]c3ccccc23)NC(=O)[C@H](CCC(N)=O)NC(=O)[C@H](CC(C)C)NC(=O)[C@H](Cc2c[nH]c3ccccc23)NC1=O
B6: Cpd #90 (peptide)
peptide: Ac-SDCWLQWK(DOTA)CPFD-NH2
modifications: disulfide 3-9
SMILES: CC(=O)N[C@@H](CO)C(=O)N[C@@H](CC(=O)O)C(=O)N[C@H]1CSSC[C@@H](C(=O)N2CCC[C@H]2C(=O)N[C@@H](Cc2ccccc2)C(=O)N[C@@H](CC(=O)O)C(N)=O)NC(=O)[C@H](CCCCNC(=O)CN2CCN(CC(=O)O)CCN(CC(=O)O)CCN(CC(=O)O)CC2)NC(=O)[C@H](Cc2c[nH]c3ccccc23)NC(=O)[C@H](CCC(N)=O)NC(=O)[C@H](CC(C)C)NC(=O)[C@H](Cc2c[nH]c3ccccc23)NC1=O
B7: Cpd #97 (peptide)
peptide: Ac-[Chg]SDCK(DOTA)LQWNCPFD-NH2
modifications: disulfide 4-10
SMILES: CC(=O)N[C@H](C(=O)N[C@@H](CO)C(=O)N[C@@H](CC(=O)O)C(=O)N[C@H]1CSSC[C@@H](C(=O)N2CCC[C@H]2C(=O)N[C@@H](Cc2ccccc2)C(=O)N[C@@H](CC(=O)O)C(N)=O)NC(=O)[C@H](CC(N)=O)NC(=O)[C@H](Cc2c[nH]c3ccccc23)NC(=O)[C@H](CCC(N)=O)NC(=O)[C@H](CC(C)C)NC(=O)[C@H](CCCCNC(=O)CN2CCN(CC(=O)O)CCN(CC(=O)O)CCN(CC(=O)O)CC2)NC1=O)C1CCCCC1
B8: Cpd #98 (peptide)
peptide: Ac-[Chg]SDCWK(DOTA)QWNCPFD-NH2
modifications: disulfide 4-10
SMILES: CC(=O)N[C@H](C(=O)N[C@@H](CO)C(=O)N[C@@H](CC(=O)O)C(=O)N[C@H]1CSSC[C@@H](C(=O)N2CCC[C@H]2C(=O)N[C@@H](Cc2ccccc2)C(=O)N[C@@H](CC(=O)O)C(N)=O)NC(=O)[C@H](CC(N)=O)NC(=O)[C@H](Cc2c[nH]c3ccccc23)NC(=O)[C@H](CCC(N)=O)NC(=O)[C@H](CCCCNC(=O)CN2CCN(CC(=O)O)CCN(CC(=O)O)CCN(CC(=O)O)CC2)NC(=O)[C@H](Cc2c[nH]c3ccccc23)NC1=O)C1CCCCC1

Target: T1, Biotinylated human DLL3
Experiment: SPR, biotin-hDLL3 on SA chip

Kd	binding result	Binder
0.54 nM	–	Ac-[Chg]SDC[1Nal]LQWNC[dNMeA]FD[dK](DOTA)-NH2 (disulfide 4-10) [Cpd #94]
1.24 nM	–	Ac-[Chg]SDC[1Nal]L[Ala(piperidin-4-yl)]WNCPFD[dK](DOTA)-NH2 (disulfide 4-10) [Cpd #111]
20.1 nM	–	Ac-MSDCWLQ[Trp(7-aza)]NCPFD[dK](DOTA)-NH2 (disulfide 4-10) [Cpd #64]
9.7 nM	–	Ac-SDCWLQWNCPFD[dK]([γGlu-DOTA])-NH2 (disulfide 3-9) [Cpd #88]
15.8 nM	–	Ac-MSDCW[Nle]QWNCPFD[dK](DOTA)-NH2 (disulfide 4-10) [Cpd #68]
2.56 nM	–	B1
1.2 nM	–	Ac-[Chg][dS]DC[1Nal]LQWNCPFD[dK](DOTA)-NH2 (disulfide 4-10) [Cpd #106]
1.9 nM	–	Ac-[dNle][dS]DC[1Nal]LQWNCPFD[dK](DOTA)-NH2 (disulfide 4-10) [Cpd #107]
145 nM	–	B2
31.3 nM	–	B3
32.4 nM	–	Ac-MSDCWLQ[Phe(4-CF3)]NCPFD[dK](DOTA)-NH2 (disulfide 4-10) [Cpd #65]
17.1 nM	–	Ac-[dE]SDCWLQWNCPFD[dK](DOTA)-NH2 (disulfide 4-10) [Cpd #82]
2.89 nM	–	Ac-[dA][dS]DC[1Nal]LQWNCPFD[dK](DOTA)-NH2 (disulfide 4-10) [Cpd #108]
0.89 nM	–	B4
95.7 nM	–	B5
> 300 nM	–	B6
6.95 nM	–	Ac-MSDCW[Cba]QWNCPFD[dK](DOTA)-NH2 (disulfide 4-10) [Cpd #70]
33.3 nM	–	Ac-SDCWLK(DOTA)WNCPFD-NH2 (disulfide 3-9) [Cpd #87]
7.4 nM	–	Ac-[Chg]SDCWLQWNCPFD[dK](DOTA)-NH2 (disulfide 4-10) [Cpd #77]
0.59 nM	–	Ac-[Chg]SDC[1Nal]LQWNCPFD[dK](DOTA)-NH2 (disulfide 4-10) [Cpd #105]
4.52 nM	–	Ac-MSDCW[Chg]QWNCPFD[dK](DOTA)-NH2 (disulfide 4-10) [Cpd #71]
–	no binding	Ac-SDCWLQWNCPFD-NH2 (disulfide 3-9) [Cpd #5]
5.56 nM	–	{DOTA-Ahx}-SDCW[NMeL]QWNCPFD-NH2 (disulfide 3-9) [Cpd #92]
–	no binding	B7
4.03 nM	–	Ac-MSDCW[tBuAla]QWNCPFD[dK](DOTA)-NH2 (disulfide 4-10) [Cpd #67]
9.6 nM	–	{hexanoic acid}-SDCWLQWNCPFD[dK](DOTA)-NH2 (disulfide 3-9) [Cpd #75]
16.4 nM	–	Ac-MSDCW[Cha]QWNCPFD[dK](DOTA)-NH2 (disulfide 4-10) [Cpd #69]
93 nM	–	B8
–	no binding	{DOTA-Ahx}-SDCWL[NMeQ]WNCPFD-NH2 (disulfide 3-9) [Cpd #93]
